{"source": "paper PMC10220053", "about": "“Molecular basis for Eaf3-mediated assembly of Rpd3S and NuA4” (Cell Discovery, 2023)", "binders": {"B1": {"name": "SUMO–Eaf7^108–143 (domain or fragment, S. cerevisiae, UniProt P53911 108-143, looked up)", "chain": "EETLLELNNRIRVRKQDFTLPWEEYGELILENARKS"}, "B2": {"name": "H3K4me0^1–12 peptide (peptide, UniProt P61830 2-13, looked up)", "peptide": "ARTKQTARKSTG", "notes": "Histone H3, residues 1–12, Lys4 unmodified; also called H3K4me0 peptide; unmodified H3K4"}, "B3": {"name": "Rco1^PHD1–SID (aa 240–376) (domain or fragment, S. cerevisiae, UniProt Q04779 240-376, looked up)", "chain": "SNASEKIFRDKNNSTIDFENEDFCSACNQSGSFLCCDTCPKSFHFLCLDPPIDPNNLPKGDWHCNECKFKIFINNSMATLKKIESNFIKQNNNVKIFAKLLFNIDSHNPKQFQLPNYIKETFPAVKTGSRGQYSDEN", "notes": "also called Rco1^SID1–PHD"}}, "key": {"[1]": {"biological_target": "T1, C-terminal MRG domain of Eaf3 (Eaf3^MRG, aa 218–401) (S. cerevisiae, UniProt Q12432 218-401)", "T1 construct": "Eaf3, S. cerevisiae, C-terminal MRG domain, aa 218–401", "T1 sequence (looked up)": "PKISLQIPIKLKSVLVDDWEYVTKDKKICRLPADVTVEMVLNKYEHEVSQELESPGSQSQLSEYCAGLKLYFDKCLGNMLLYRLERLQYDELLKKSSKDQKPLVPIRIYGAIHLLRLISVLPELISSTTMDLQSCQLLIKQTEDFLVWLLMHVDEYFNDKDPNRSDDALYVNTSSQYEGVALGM", "experiment": "ITC; SUMO–Eaf7^108–143 or SUMO alone with Eaf3^MRG or the Eaf3^MRG–Rco1^PHD1–SID complex", "conditions": "both partners purified"}, "Rco1^PHD1 alone": {"biological_target": "T2, Rco1^PHD1 alone (S. cerevisiae, Zn2+-bound PHD finger. Limits for PHD1 alone are not given; taken from the SID-deleted truncation Rco1 240-313 in the text, which covers PHD1 (zinc finger 260-309))", "T2 chain": "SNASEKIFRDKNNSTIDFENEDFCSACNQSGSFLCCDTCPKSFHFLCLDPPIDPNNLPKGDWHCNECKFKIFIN", "experiment": "ITC; H3 1–12 peptides with the Eaf3^MRG–Rco1^PHD1–SID complex or with Rco1^PHD1 alone", "conditions": "both partners purified"}, "[2]": {"biological_target": "B3", "experiment": "crystal structure; Eaf3^MRG–Rco1^PHD1–SID–H3K4me0^1–12 ternary complex, 1.60 Å", "conditions": "both partners purified"}, "[3]": {"biological_target": "T1, C-terminal MRG domain of Eaf3 …", "experiment": "pull-down; GST pull-down / affinity pull-down of Eaf3^MRG (wild type and mutants) with Rco1^PHD1–SID (wild type, mutants, truncation); which partner carried GST is not told"}}}
{"binder": "B1", "values": [{"measurement": "Kd", "setting": "[1]", "result": 1, "unit": "µM"}]}
{"binder": "B2", "values": [{"measurement": "Kd", "setting": "Rco1^PHD1 alone", "result": 110, "unit": "µM"}, {"measurement": "binding result", "setting": "[2]", "result": "binds"}]}
{"binder": "B3", "values": [{"measurement": "binding result", "setting": "[3]", "result": "binds"}]}
